In the supplement of paper PMC10567573:

Test: protein stability index of a GFP-peptide fusion (GPS, HEK-293T) (PSI 1-6); higher = more stable
Conditions: parent: NP_006221.1; c terminus: native
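Also: lentivirally expressed fusion library, cells FACS-sorted into six equal-sized GFP/DsRed ratio bins, PSI computed from sequencing read fractions per bin weighted by bin number.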

Q: With CQPISFSGFGAEDDDLGGLGLGPRQ [POLD2 addRQ] as the protein, how does the protein stability index read?
A: 4.81
